Test [1] has as its target T1, hPD-L1 (Homo sapiens, UniProt Q9NZQ7).
T1 construct: designed from A18 to T239 with a methionine added to the N-terminus; hexahistidine tag (C); made in house
Put plainly: Radioactive competition assay: [35S]-SPAM binding to immobilized hPD-L1 with competitor. The following applies: 5 μM competitor. The method, then:
For radioactive competition assays, hPD-L1-immobilized streptavidin agarose beads were preincubated with the desired competitor for one hour at 4° C. followed by addition of the radiolabeled peptide for 1 h. The ratio of the counts remaining on the beads to the total counts added to the binding reaction was calculated to determine the percent bound.

Test [2] has as its target T1, hPD-L1. Briefly: Surface plasmon resonance of mPD-1 on immobilized hPD-L1. The settings on record: SPR, 25° C., one-site saturation binding model; read-out: dissociation constant (KD) hPD-L1/mPD-1. The method, then: In order to confirm that the expressed hPD-L1 was correctly folded, binding to mPD-1 was measured by SPR. The dissociation constant (KD) between recombinant hPD-L1 and PD-1 was determined to be 3.2±0.3 μM using a one-site saturation binding model (FIG. 7).
SPR analysis was performed on a Biacore T-100 at the USC Nanobiophysics core. E. coli expressed biotinylated hPD-L1 was immobilized onto a sensor chip SA (GE Healthcare Life Sciences) and different concentrations (from 1.5×10^−7 to 2.9×10^−5 M) of mPD-1 was flowed over the chip at a rate of 50 μL/min for 60 seconds in a buffer consisting of 50 mM HEPES-KOH pH 7.5, 150 mM NaCl, 0.05% (v/v) Tween-20 and 1 mg/mL BSA at 25° C. The response values were fit to a one-site saturation binding model in GraphPad Prism to obtain an equilibrium binding constant.

Entries after “also recorded” stand apart in the source; their conditions may differ.

The text below walks through data of patent US12643935B2, “PD-L1 binding peptides” (UNIVERSITY OF SOUTHERN CALIFORNIA, priority 2020, dated 2026).

B1: mPD-1: murine variant of PD-1, recombinant extracellular domain with HA tag and His tag (protein)
chain: MALEVPNGPWRSLTFYPAWLTVSEGANATFTCSLSNWSEDLMLNWNRLSPSNQTEKQAAFSNGLSQPVQDARFQIIQLPNRHDFHMNILDTRRNDSGIYLCGAISLHPKAKIEESPGAELVVTERILETSTRYPSGGYPYDVPDYALEHHHHHH
modifications: HA tag and His tag
notes: murine variant of PD-1, recombinant extracellular domain with HA tag and His tag
Regarding B1, in the test with hPD-L1 [1], the “effect on [35S]-SPAM binding to immobilized hPD-L1” value was “significantly inhibited; also recorded: disrupted”. Besides, the Kd with hPD-L1 [2] is roughly 3000 nM.
